Molecular target: T1, Dhr1 isolated C-terminal domain (CTD) (Saccharomyces cerevisiae, UniProt Q04217 1176-1267)
T1 sequence: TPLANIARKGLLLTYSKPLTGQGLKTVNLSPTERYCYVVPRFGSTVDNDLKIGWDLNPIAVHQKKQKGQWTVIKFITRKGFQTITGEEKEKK
Experiment: not stated

## UUUUUUUUUUUUUUU (ssRNA) [poly(U)15]
  binding result: no binding

## AAAAAAAAAAAAAAA (ssRNA) [poly(A)15]
  binding result: no binding
